B1: GN92: Modified GN4, N-terminal peptide KFFKFFKFFK with linker, SEQ ID NO: 7 (protein)
chain: KFFKFFKFFKAGAGAGAGAGAGAGAGASMRTSQRGIDLIKSFEGLRLSAYQDSVGVWTIGYGTTRGVTRYMTITVEQAERMLSNDIQRFEPELDRLAKVPLNQNQWDALMSFVYNLGAANLASSTLLKLLNKGDYQGAADQFPRWVNAGGKRLDGLVKRRAAERALFLEPLS
B2: GN37: Native lysin, WP_014102102.1/VanY, SEQ ID NO: 12; first disclosed in WO/2017/049233 (protein, listed as Micavibrio aeruginosavorus)
chain: MTYTLSKRSLDNLKGVHPDLVAVVHRAIQLTPVDFAVIEGLRSVSRQKELVAAGASKTMNSRHLTGHAVDLAAYVNGIRWDWPLYDAIAVAVKAAAKELGVAIVWGGDWTTFKDGPHFELDRSKYR
B3: GN147: Modified GN3, amino acid substitutions (R101D, R117H), SEQ ID NO: 5 (protein)
chain: MRTSQRGLSLIKSFEGLRLQAYQDSVGVWTIGYGTTRGVKAGMKISKDQAERMLLNDVQRFEPEVERLIKVPLNQDQWDALMSFTYNLGAANLESSTLRDLLNAGNYAAAAEQFPHWNKAGGQVLAGLTRRRAAERELFLGAA

The molecules below were run on P. aeruginosa (assay: Minimal inhibitory concentration (MIC), modified CLSI broth microdilution in CAA or CAA/HuS). Settings: CAA media.
Assay type: cell-based, Pseudomonas aeruginosa

Molecule	MIC (μg/mL) in CAA [µg/mL]
B1	32
B2	>128
B3	2

Same assay, conditions: CAA supplemented with 25% human serum

Molecule	MIC (μg/mL in CAA/HuS) [µg/mL]	MIC value in CAA/HuS [µg/mL]
B1	4	4
B2	32	32
B3	4	4

Each molecule was assayed on P. aeruginosa strain ATCC 17647 (assay: Minimal Biofilm Eradicating Concentration (MBEC), Calgary Biofilm Device). Settings: 24 h biofilm, 24 h treatment; minimum concentration removing >95% of biofilm biomass (crystal violet).
Assay type: cell-based, Pseudomonas aeruginosa
Source text: All samples were examined in triplicate.

Molecule	MBEC [µg/mL]
B1	0.5
B2	0.25
B3	0.25

The molecules below were run on P. aeruginosa (assay: Time-kill assay of GN lysin activity). Settings: CAA/HuS; lysin 10 μg/mL; T = 0 7.8; buffer control 7.2; limit of detection 3.7; ‡ indicates bactericidal activity.
Assay type: cell-based, Pseudomonas aeruginosa
Description: All treatments were incubated at 37° C. with aeration.

Molecule	Log10 CFU/mL T = 3 hr
B1	<3.7‡ Log10 CFU/mL
B2	<3.7‡ Log10 CFU/mL
B3	4.2‡ Log10 CFU/mL

Same assay, conditions: CAA/HuS; lysin 10 μg/mL; T = 0 7.8; buffer control 7.7

Molecule	Log10 CFU/mL T = l hr [Log10 CFU/mL]
B1	6.2
B2	6.2
B3	6.5

Same assay, conditions: HEPES buffer; lysin 10 μg/mL; T = 0 7.8; buffer control 7.2; limit of detection 3.7; ‡ indicates bactericidal activity

Molecule	Log10 CFU/mL T = 3 hr
B1	<3.7‡ Log10 CFU/mL
B2	<3.7‡ Log10 CFU/mL
B3	<3.7‡ Log10 CFU/mL

Same assay, conditions: HEPES buffer; lysin 10 μg/mL; T = 0 7.8; buffer control 7.7; ‡ indicates bactericidal activity

Molecule	Log10 CFU/mL T = l hr
B1	5.7 Log10 CFU/mL
B2	6.3 Log10 CFU/mL
B3	<3.7‡ Log10 CFU/mL

Each molecule was assayed on carbapenem-resistant clinical strain, WC-452 (assay: Checkerboard assay to examine synergy with antibiotics in CAA/HuS). Settings: not given.
Assay type: cell-based, P. aeruginosa
Description: Fractional inhibitor concentration index (FICI) values were determined for all combinations; values of <0.5 indicate synergy.
The checkerboard assays is based on a modification of the CLSI method for MIC determination by broth microdilution (26, 29). Checkerboards were constructed by first preparing columns of a 96-well polypropylene microtiter plate, in which each well had the same amount of antibiotic diluted 2-fold along the horizontal axis. […] Summation fractional inhibitory concentrations (ΣFICs) were calculated for each drug and the minimum ΣFIC value (ΣFICmin) was used to determine synergy. ΣFICs were calculated as follows: ΣFIC=FIC A+FIC B, where FIC A is the MIC of each antibiotic in the combination/MIC of each antibiotic alone, and FIC B is the MIC of each GN lysin in the combination/MIC of each GN lysin alone. The combination is considered synergistic when the ΣFIC is ≤0.5, strongly additive when the ΣFIC is >0.5 to <1, additive with the ΣFIC is 1−<2, and antagonistic when the ΣFIC is ≥2.

Molecule	synergy with antibiotics in the checkerboard assay
B1	synergize with a range of antibiotics
B2	synergize with a range of antibiotics
B3	synergize with a range of antibiotics

Same assay, conditions: lysin + amikacin

Molecule	FICI, Amikacin
B1	0.375
B2	0.125
B3	0.375

Same assay, conditions: lysin + azithromycin

Molecule	FICI, Azithromycin
B1	0.063
B2	0.188
B3	0.250

Same assay, conditions: lysin + aztreonam

Molecule	FICI, Aztreonam
B1	0.188
B2	0.531
B3	0.188

Same assay, conditions: lysin + ciprofloxacin

Molecule	FICI, Ciprofloxacin
B1	0.281
B2	0.281
B3	0.281

Same assay, conditions: lysin + colistin

Molecule	FICI, Colistin
B1	0.094
B2	0.156
B3	0.188

Same assay, conditions: lysin + fosfomycin

Molecule	FICI, Fosfomycin
B1	0.500
B2	0.313
B3	0.250

Same assay, conditions: lysin + gentamicin

Molecule	FICI, Gentamicin
B1	0.375
B2	0.313
B3	0.375

Same assay, conditions: lysin + imipenem

Molecule	FICI, Imipenem
B1	0.125
B2	0.313
B3	0.375

Same assay, conditions: lysin + meropenem

Molecule	FICI, Meropenem
B1	0.375
B2	0.500
B3	0.375

Same assay, conditions: lysin + piperacillin

Molecule	FICI, Piperacillin
B1	0.500
B2	0.375
B3	0.188

Same assay, conditions: lysin + rifampicin

Molecule	FICI, Rifampicin
B1	0.094
B2	0.281
B3	0.281

Same assay, conditions: lysin + tobramycin

Molecule	FICI, Tobramycin
B1	0.500
B2	0.156
B3	0.5

From patent US20220160843A1 (priority 2019, published 2022)
